Test results reported in the supplement of paper PMC9170038.

System: MS2 coat protein
Assay: apparent KD of MS2 coat protein; designed switch direction (-1 OFF switch, 1 ON switch): -1; higher = weaker reporter binding
Procedure, shortened: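 The apparent KD reported per design is the median over clusters of curve fits to normalised cluster fluorescence. The RNA switches were transcribed on Illumina chips by stalled E. coli RNA polymerase. SNAP-549-labelled MS2 coat protein was titrated from 0.7 or 1.5 nM, doubling up to 3 µM, in Tris-HCl pH 7.5 buffer containing KCl, MgCl2, BSA, DTT, tRNA and Tween-20, with no input, 200 uM small-molecule ligand, or an oligonucleotide input.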

[1] = input ligand: microRNA oligo, concentration not stated
[2] = Eterna round: R95, input ligand: FMN 200 uM
[3] = Eterna round: R95, input ligand: microRNA oligo, concentration not stated
[4] = Eterna round: R95, input ligand: none

Sequence	apparent KD of MS2 coat protein (input ligand: FMN 200 uM)	apparent KD of MS2 coat protein (input ligand: none)	apparent KD of MS2 coat protein [3]	other results
AAAUCAGAGGAGGAUAUGGUAUAGGAAAUGGUGCCAGAAGGUUUCACAUGAGGAUCACCCAUGUCAAAUAGUGA [EX6 #62] (Eterna round: R97, puzzle: Exclusion 6)	49.2 nM	60.4 nM		
CCCACCAGAGGAUAUGCGCAUAGAUCAGACUUUGUUUCUGAACAUGAGGAUCACCCAUGUAGAAGGCUGUAACC [Ex2 #87] (Eterna round: R97, puzzle: Exclusion 2)	25.2 nM	24.3 nM		
UAUUAGCAAGCAAGAUCCCACAUGAGGAUCACCCAUGUGCUCGUCUUAUAAGGUACUGUGACGAGAGUCACGGUACC [Mat - Sensor, turn-off var - Eli Mod - D47] (Eterna round: R97, puzzle: Sensor, turn-off variant 1)	51.4 nM	54.2 nM		
UUUUGAAAGUGAGGAUAUGACAUGAGGAUCACCCAUGUAAAGGGAGUUGACUAUAUAGCAAGAUAUCAGAAGGCACAAAUGUUU [JR_ExcNG2_Sub003] (Eterna round: R96, puzzle: Exclusion NG 2)	367 nM	645 nM		apparent KD of MS2 coat protein [1]: 341 nM
GUGUUGCGAGGAUAUAUAAGGGUAUGUUCUUAGGAUAUGGAACAUGAGGAUCACCCAUGUAGAAGGUGCAUAAC [JR_Ex2_Sub046] (Eterna round: R97, puzzle: Exclusion 2)	459 nM	761 nM		
AUCGGACAUGAGGAUCACCCAUGUCAGGAUAUCUGGAACCAUUGGCAGAUGAGGGAAAAGAGAAGGGACAGUGG [EX1 C.3] (Eterna round: R97, puzzle: Exclusion 1)	20.2 nM	18.5 nM		
AUAAAGCAAGCAUGGUCCCACAUGAGGAUCACCCAUGUGUUCGUCUUAUAGGCUGCUGUGGCUUUUGCCUCGUUGGC [LRO Sensor-off var1-09 loose mod of D91 from Mat747] (Eterna round: R97, puzzle: Sensor, turn-off variant 1)	41.6 nM	46 nM		
AAAUCGGUAGAGGAUAUUGUACAGGAAACGGUGCAAGAAGGUUACACAUGAGGAUCACCCAUGUUAAAUAGCGA [EX6 #53] (Eterna round: R97, puzzle: Exclusion 6)	26.9 nM	18.1 nM		
GUGCCGCGAGGAUAUACAGACGGGUCCAAAACGUGUCUCGGACUUGAGGAUCACCCAAGUAGAAGGCGUUUCAG [salish99_ex2_r4_620] (Eterna round: R97, puzzle: Exclusion 2)	18.6 nM	18.4 nM		
AGUACUAUCACGAAAGUGAUAGUACAAUAAGCAAGUGAAACAUGAGGAUCACCCAUGUCCUCAUUUGCUCGUCUUAU [salish99_TOv2_r3_200again] (puzzle: Sensor v3, turn-off variant 2)			749 nM	apparent KD of MS2 coat protein [2]: 17.8 nM; apparent KD of MS2 coat protein [4]: 17 nM
UUAUUUAGGUAGGAUAUCGAUAUUAAUUAUUAUCGAGAAGGGUCUACAUGAGGAUCACCCAUGUUAGCAUGUUU [LRO-Excl6-09-Rocketman] (Eterna round: R97, puzzle: Exclusion 6)	23.3 nM	29.3 nM		
CAGUACUGAGGAUAUACAUGAGGAUCACCCAUGUGUUCCAGCUAGGAAGCUAGCAAAAGUAGAAGGCAGUACUG [salish99_ex3_r3_073] (puzzle: Exclusion 3)			26.6 nM	
AAUCCACAUGAGGAUCACCCAUGUGAGGAUAUGAUACUAUGUACUUCGGUACAUAGUAUCAGAAGGCAUAUGAA [Ex1-3: 49] (puzzle: Exclusion 1)			26.9 nM	
AUAACAAGCUUUUUUUUCGUAGUACAUGACGCUCGAGUCACAUGAGGAUCACCCAUGUCUUCCUGUUUGAUUGUUGA [JR_SV3TOV2_Sub058] (puzzle: Sensor v3, turn-off variant 2)			54.7 nM	apparent KD of MS2 coat protein [2]: 45.8 nM; apparent KD of MS2 coat protein [4]: 54.6 nM
AAUACAAUAAUUAAAGAGAUAGUACAUUAUACAAGUGAAACAUGAGGAUCACCCAUGUCCUCAUUUGCUCGUCUAAU [Hunting Buffalo with a BB Gun] (puzzle: Sensor v3, turn-off variant 2)			142 nM	apparent KD of MS2 coat protein [2]: 334 nM; apparent KD of MS2 coat protein [4]: 435 nM
AGCAGCCAAUCAGGAUAUACUUUCAGGUGAAGCGUCGCGGGCGAUAACAUGAGGAUCACCCAUGUGUAGAAGGGAUGCGCAAAC [Eternabot solution 39] (Eterna round: R96, puzzle: Exclusion NG 2)	45.8 nM	41.2 nM		apparent KD of MS2 coat protein [1]: 30.3 nM
AAGGGUACUUUCAGAACGACAUGAGGAUCACCCAUGUAGACUGAGGAUAUCUACUACUAAGGACGGGAGAAGGCAGUGUAAUGU [Ex NG3 #73] (Eterna round: R96, puzzle: Exclusion NG 3)	13.8 nM	15.2 nM		apparent KD of MS2 coat protein [1]: 10 nM
UUAUUAUAUGUAGGAUAUGCAUAUUAUUAUUGUGCAGAAGGACAUGAGGAUCACCCAUGUAUAUUAUUAUUAUAUAUUAUAUAU [Title] (Eterna round: R96, puzzle: Exclusion NG 1)				apparent KD of MS2 coat protein [1]: 26.5 nM
AAUAACAGAGGAUAUACUAUUUUAUGUGUUUGUUAUUUUGAACAUGAGGAUCACCCAUGUAGAAGGCUGAGUAA [JMF 36] (puzzle: Exclusion 2)			26.8 nM	
CCUCUACAUGAGGAUCACCCAUGUGAGGAUAUCUCGGAAAAGCCACUUAAGGUACUCCAGAGAAGGCACGUGUA [Rileed] (puzzle: Exclusion 1)			15.2 nM	
AUUAUAAGGAGAGGAUAUCUAAUAAUAUAUAUUAGAGAAGGCUCACAUGAGGAUCACCCAUGUUUUUUUUUUUUUUUUUUUUUU [Default title] (Eterna round: R96, puzzle: Exclusion NG 1)	89.5 nM	71.7 nM		apparent KD of MS2 coat protein [1]: 65 nM
UUUUUCAUCUAUGGGAGUGACAUGAGGAUCACCCAUGUGUGUCUUGUUUUUUGUUCGUCUAAGACUUUCUGAUCAGU [JR_SV3TOV1_Sub032] (puzzle: Sensor v3, turn-off variant 1)			313 nM	apparent KD of MS2 coat protein [2]: 128 nM; apparent KD of MS2 coat protein [4]: 160 nM
GUAAAGUGAGGAUAUGGUAAUUUAAUUAUUAAUUAAUUAAUCCAGAAGGCACAUGAGGAUCACCCAUGUAAAUG [Mat - Exclusion 4 - D90] (puzzle: Exclusion 4)			31.6 nM	
GCAUGAAAUGUGAGGAUAUACCUCUGGAUACAUAGGUAGAAGGCACAUGAGGAUCACCCAUGUCCUAAACAUGC [Fiskers BMX 4 - 27] (puzzle: Brourd's mod of Exclusion 4)			32.2 nM	
